System: MS2 coat protein
Test: apparent KD of MS2 coat protein; designed switch direction (-1 OFF switch, 1 ON switch): 1; higher = weaker reporter binding
Procedure, shortened: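 Three titration conditions were used: no input, 200 uM small-molecule ligand, and an oligonucleotide input. In each, SNAP-549-labelled MS2 coat protein was raised from 0.7 or 1.5 nM, doubling, to 3 µM over designed RNA switches transcribed on Illumina chips by stalled E. coli RNA polymerase. Curve fits of normalised cluster fluorescence gave values whose per-design median over clusters is the apparent KD.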

[1] = input ligand: microRNA oligo, concentration not stated
[2] = Eterna round: R95, input ligand: FMN 200 uM
[3] = Eterna round: R95, input ligand: microRNA oligo, concentration not stated
[4] = Eterna round: R95, input ligand: none

Row | Sequence | apparent KD of MS2 coat protein (input ligand: FMN 200 uM) [nM] | apparent KD of MS2 coat protein [1] [nM] | apparent KD of MS2 coat protein (input ligand: none) [nM] | apparent KD of MS2 coat protein [2] [nM] | apparent KD of MS2 coat protein [3] [nM] | apparent KD of MS2 coat protein [4] [nM]
1 | ACAUGAAAUUUAGGAUAUUUUGUACCUACAUGUGACAUGAGGAUCACCCAUGUGGUAAGUAUAAGAAAGAAGGAAAAGAUAUGU [Equivalence 8 - Jieux - Same State NG 2] (Eterna round: R96, puzzle: Same State NG 2) | 61.1 | 41.2 | 64.9 | – | – | –
2 | CUGAGCAGUCAAGGAUAUCACGUCGAUUAGACGUGAGAAGGUGAUUAAUACAUGAGGAUCACCCAUGUAAUACAUGAAGCUCAG [SSNG1/11-A2] (Eterna round: R96, puzzle: Same State NG 1) | 13.8 | 38.4 | 41.9 | – | – | –
3 | GUAGCAUACCGAGGAUAUUCAUAUUAACAUGAGGAUCACCCAUGUAUUUAGGCCAAAAGGCCUUGGGAGAAGGCGGAAUGCUAC [Xeonanis - 20 Mod7] (Eterna round: R96, puzzle: Same State NG 2) | 17.5 | 22.3 | 29.4 | – | – | –
4 | UCUUGGUUUUUGCUCGUUUUUUGUGUUGAACAUGAGGAUCACCCAUGUAUUGUACGGUCCGGUUUGGUAGUGGUCCG [JMF 16] (puzzle: Sensor for hsa-mir-208a) | – | – | – | 41 | 29.4 | 53.6
5 | CGACACACGGCAGGAUAUGCUUAGCAAAGCUAAGCAGAAGGGCCUCAUGUCGUGGAAACGUGACAUGAGGAUCACCCAUGUCGC [Omei SS(NG)1 C] (Eterna round: R96, puzzle: Same State NG 1) | 31 | 14.6 | 19.9 | – | – | –
6 | UGUUGUAUUACAGGAUAUCUAGUAUUUUGAUUUAGAGAAGGGUAUUCACAUGAGGAUCACCCAUGUAUAUACGAGGAAGUUGUG [JMF's solution 44] (Eterna round: R96, puzzle: Same State NG 1) | – | 44 | – | – | – | –
7 | GGUGCAAUUAACGCCUACAUGAGGAUCACCCAUGUAUGUAGGCAGGAUAUCGUUUGCUUUGCAAACGAGAAGGGCUGUAGUACC [JL SSNG3 1.14] (Eterna round: R96, puzzle: Same State NG 3) | 35.6 | 89.3 | 84.5 | – | – | –
8 | UGUUGUAAUACAGGAUAUCUAUUAUUUUUAUUUAGAGAAGGGUAAUCACAUGAGGAUCACCCAUGUAUAUACGAGGAAGAAGAG [JMF's solution 4] (Eterna round: R96, puzzle: Same State NG 1) | – | 126 | – | – | – | –
9 | CUUUUUAAUGCAGGAUAUGAUCAACAUGAGGAUCACCCAUGUGGCGUUGUGAGUAGGGAGAGUGAUCAGAAGGGCAUCUCCUCG [SS-NG2-LRO08] (Eterna round: R96, puzzle: Same State NG 2) | 68 | 45.1 | 62.4 | – | – | –
10 | AGUCCAGCCUGAGCUGGACAAAGACAUGUACAUGAGGAUCACCCAUGUCAUGUACAAGUUUUUUGCUCGUCUUAUAA (puzzle: Sensor for hsa-mir-208a) | – | – | – | 36.7 | 12.5 | 44.1
11 | GGUGGGUUGCUGCCGGCACAUGAGGAUCACCCAUGUUUUGGGAAGGAUAUGGUACCUUUUUGGUGCCAGAAGGUCCCGUUGGUG [salish99_SSNG3_r04_712 large U pivot] (Eterna round: R96, puzzle: Same State NG 3) | – | 350 | – | – | – | –
12 | GUCCGUACCACAGGAUAUCCUAGUCAUGAUCUAGGAGAAGGGUGGCCACAUGAGGAUCACCCAUGUGAAGUGCCAGAGGCACGA [MOD Xexeraed] (Eterna round: R96, puzzle: Same State NG 1) | 35.2 | 46 | 53.3 | – | – | –
13 | UUAUAACAUGAGGAUCACCCAUGUCAACAAAGUCGAGGAUAUGGGCAGAGAGGAGAAGAACCAGAAGGCGAAUAUU [Mat - Same State 1 - Mod of UCT - D38] (puzzle: Same State 1) | – | – | – | 91.2 | 98.4 | 94.9
14 | GGGAGAGACGGAGGAUAUGGAGGGAGAUAGAGACUAGAAGGUUGGACAUGAGAAUCGAACAUGAGGAUCACCCAUGUUGGGAGG [iteri-2] (Eterna round: R96, puzzle: Same State NG 1) | 61.5 | 33.7 | 56.7 | – | – | –
15 | GGUCAGACUCACAUGAGGAUCACCCAUGUACCGGAAACGGCACAGGAUAUCUGUCCGAAAAGGUCAGAGAAGGGUGUACUGACC [Fiskers NG3ss - 53] (Eterna round: R96, puzzle: Same State NG 3) | 277 | 22.9 | 82 | – | – | –
16 | AGCUAUCGAAAACGAUAGCAAAAGCAUGUACAUGAGGAUCACCCAUGUCAUGUACAAGCUUUUUGCUCGUUUUAAAA [Zipper 23 - 15] (puzzle: Sensor for hsa-mir-208a) | – | – | – | 20.1 | 37.8 | 52.5

Row | Sequence | apparent KD of MS2 coat protein (input ligand: FMN 200 uM) [nM] | apparent KD of MS2 coat protein [1] [nM] | apparent KD of MS2 coat protein (input ligand: none) [nM] | apparent KD of MS2 coat protein [2] [nM] | apparent KD of MS2 coat protein [3] [nM] | apparent KD of MS2 coat protein [4] [nM]
17 | UUGAAGAAUUAAGGAUAUUGAGUACAUAUGUUUAACAUGAGGAUCACCCAUGUGGGUUGCGGUAUCGAGAAGGUAAAUUACUAG [JL SSNG2 1.45] (Eterna round: R96, puzzle: Same State NG 2) | 91.2 | 76.1 | 155 | – | – | –
18 | AUUGCUUUCGCAGGAUAUGAUGCGAAAAUUGCGUCAGAAGGGUGGAGUCUCUCAUUGCAAGAGGACAUGAGGAUCACCCAUGUC [SameState NG1 #86] (Eterna round: R96, puzzle: Same State NG 1) | 177 | 245 | 322 | – | – | –
19 | GACCGCGAGGAAGGAUAUCGAGCCUUAUUGGCUCGAGAAGGUCCAUAAAGGACAUGAGGAUCACCCAUGUGGUGAGAAGCGGUC [Mat - Same State NG 1 - JL mod - D76] (Eterna round: R96, puzzle: Same State NG 1) | 187 | 1430 | 1160 | – | – | –
20 | UUUACUUUCAUAGGAUAUCAUGCGAAAAUUGCGUGAGAAGGGUGAAUACUGUCUUUCUAAGAGUACAUGAGGAUCACCCAUGUA [SameState NG1 #64] (Eterna round: R96, puzzle: Same State NG 1) | 56.9 | 45.8 | 51.2 | – | – | –
21 | UUAAUAAUGUUAGGAUAUACAUGAGGAAUCCUCGUAGAAGGAACAUGACAUGAGGAUCACCCAUGUAGCGCUCGAAAGAGCGCA [Mat - Same State NG 1 - JL mod - D48] (Eterna round: R96, puzzle: Same State NG 1) | 25.6 | 16.3 | 417 | – | – | –
22 | AUAAGUUUGAUGCUCGUCUCUUCGUACAGACAUGAGGAUCACCCAUGUAGUCGGGAAGUAGCCCGGCCAGUAUGACC [Usraisqu] (Eterna round: R96, puzzle: Sensor for hsa-mir-208a) | 285 | 38.2 | 248 | – | – | –
23 | UGUUGUUAAUUAGGAUAUGGUCACAUGAGGAUCACCCAUGUAAUGUCGAUGCUAUGUGGAUACGAUCAGAAGGAAUGGCUAACA [SameState NG2 #94] (Eterna round: R96, puzzle: Same State NG 2) | 93.3 | 225 | 175 | – | – | –
24 | AAACACGGCAAAACGCCGUGACAUGAGGAUCACCCAUGUACACAGGAUAUCAUGGCAAAACACCAUGAGAAGGGUGAUCAAGAC [Zaleala] (Eterna round: R96, puzzle: Same State NG 3) | 30.7 | 26.1 | 34.9 | – | – | –
25 | AGCUAGUACGAAGGAUAUACAAACAUGAGGAUCACCCAUGUAUACAUGGUUUAAUGAGACUACAUGUAGAAGGUCGUACUAGCA [SameState NG2 #13] (Eterna round: R96, puzzle: Same State NG 2) | 559 | 423 | 1030 | – | – | –
26 | UGAAUGGUGAUAGGAUAUACAUGAGGAAUCCUCGUAGAAGGAUCACGACAUGAGGAUCACCCAUGUAGCCGUCCGUAGACGGCC [salish99_SSNG1_r04_002] (Eterna round: R96, puzzle: Same State NG 1) | – | 89.6 | – | – | – | –
27 | AUUAAACAUGAGGAUCACCCAUGUCAACAAAGUCGAGGAUAUGGGCAAAUAAAAUAAUAACCAGAAGGCGAAUAAU [salish99_ss1_r3_065] (puzzle: Same State 1) | – | – | – | 37.8 | 353 | 295
28 | UGAAUAGUUACAGGAUAUGAGUUGUAAAUUGGGUCAGAAGGGUGGGUGUUCUGCGCGGUGUGUUACAUGAGGAUCACCCAUGUU [SameState NG1 #29] (Eterna round: R96, puzzle: Same State NG 1) | 504 | 182 | 377 | – | – | –
29 | UGUUGUAUUACAGGAUAUCUAUUAUGUUUAUUUAGAGAAGGGUAUUCACAUGAGGAUCACCCAUGUAUAUACGAGGAAGUUGUG [JMF's solution 16] (Eterna round: R96, puzzle: Same State NG 1) | – | 37.5 | – | – | – | –
30 | GAUUAACAUGAGGAUCACCCAUGUCGUUUAAUGGGAGGAUAUACGUGGACCGUAGUCCGCGUAGAAGGCCUAAUUG [JL-ss1-3.22 janelle mod] (Eterna round: R96, puzzle: Same State 1) | 31.5 | 48.3 | 77.4 | – | – | –
31 | GUGGUCAGACAUGAGGAUCACCCAUGUGGAAUAAAUAAGGAGAAGGAUAUUUAAUAUAGGAUAUAAAAGAAGGUCUGGUUGGUG (Eterna round: R96, puzzle: Same State NG 3) | 99.4 | 55.6 | 92.5 | – | – | –

Source: the supplement of paper PMC9170038
